Test [1] addresses T1, human hisTRIM7- (human, UniProt Q9C029 342-511). Put plainly: ITC. (ITC needs no label: the signal is the heat of the interaction.)
Test [2] deals with T1, human hisTRIM7-. The experiment in a line: ITC. This is another data set of the same source.

These results are taken from publication PMC9394474 (2022).

Like-named read-outs stand apart in the source and are kept apart here. Ends that are not written are not given here.

As a reminder, the Kd is the free concentration of one partner at which half of the binding sites on the other are occupied at equilibrium, for simple one-to-one binding. With DNIKKKLDTYLQ [rbGYG1 322-333 peptide], in the test with human hisTRIM7- [1], the affinity, expressed as Kd, was 21.1 µM.
Ac-Leu-Gln [N-terminal acetylated LQ] registered a Kd with human hisTRIM7- [2] of 144 µM.
